Experimental findings from patent publication EP2857035B1 are described below.

Test [1] addresses HLA-A2 (human). As to the kind of experiment: assembly assay (HLA stabilisation), T2 cell lysate, IP, IEF gel.
Test [2] deals with HLA-A2 (human). As to the kind of experiment: assembly assay, TAP-deficient cell lysate, W6/32 IP, IEF gel.
Another test deals with HLA-A1 (human). The test is described as above.
Another test addresses HLA-A3 (human). Described as above.

Turning to C1, HIV-1 pol476-484 (peptide), the figures for the C50 with HLA-A2 (human) [1] and with HLA-A2 (human) [2] were 0.7 µM and 0.2 µM, respectively.

C1, Influenza A, PB1 591-599 (peptide): the C50 with HLA-A1 (human) was determined as 0.8 µM.

In the test with HLA-A3 (human), “Influenza A, nucleoprotein 265-273 (peptide)” came in with a C50 of 0.1 µM.
